Assay results reported in patent US20030165841, “Use of phosphorothiolate polynucleotides in ligating nucleic acids” (published 2003).

T1: Topo65 (human topoisomerase I fragment, residues 215-765) (Homo sapiens, UniProt P11387 SEQ:22-572)
T1 chain: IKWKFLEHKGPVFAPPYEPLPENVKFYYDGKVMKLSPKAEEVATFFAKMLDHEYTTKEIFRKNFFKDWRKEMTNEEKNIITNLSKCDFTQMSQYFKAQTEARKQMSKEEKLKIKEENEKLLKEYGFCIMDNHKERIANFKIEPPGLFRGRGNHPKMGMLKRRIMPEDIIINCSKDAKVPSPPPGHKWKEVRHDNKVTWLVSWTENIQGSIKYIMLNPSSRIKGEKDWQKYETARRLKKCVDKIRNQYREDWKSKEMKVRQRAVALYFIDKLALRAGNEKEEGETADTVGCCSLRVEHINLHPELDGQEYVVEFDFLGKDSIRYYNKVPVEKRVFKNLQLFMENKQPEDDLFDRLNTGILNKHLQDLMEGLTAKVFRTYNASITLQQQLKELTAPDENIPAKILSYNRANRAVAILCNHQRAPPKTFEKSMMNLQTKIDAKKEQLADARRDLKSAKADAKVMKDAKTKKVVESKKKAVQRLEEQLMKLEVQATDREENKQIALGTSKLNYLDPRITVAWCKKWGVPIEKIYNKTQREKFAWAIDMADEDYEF

B1: TCRIBamAS alone (ssDNA)
DNA: GATCAAGTCTTTTTGCGGCCGCG
B2: suicide 22-mer duplex (dsDNA)
DNA 1: AAAAAGACTTAGAAAAATTTTT
DNA 2: AAAAATTTTTCTAAGTCTTTTT
modifications: 5'-bridging phosphorothiolate between GACTT and AGAAAA of top strand
B3: TCRIBstBS alone (ssDNA)
DNA: AATTCGCGGCCGCAAAAAGACTTCG
modifications: 5'-bridging phosphorothiolate 2 bases from 3' end
B4: TCRIBstBAS alone (ssDNA)
DNA: CGAAGTCTTTTTGCGGCCGCG
B5: TCRIBamS alone (ssDNA)
DNA: AATTCGCGGCCGCAAAAAGACTTGATC
modifications: 5'-bridging phosphorothiolate 4 bases from 3' end

How the values were obtained:
[1] = molecular target: T1, Topo65 (human topoisomerase I fragment, …); assay: no gel shift with single strand alone
Method: (§1) The duplex substrates shown in FIGS. 3A and 3B were reacted overnight at room temperature with Topo65. The reaction mixtures contained 3 μM Topo65, 10 μM duplex substrate, 10 mM Tris-HCl, pH 7.5, 100 mM KCl, 10 mM MgCl2, 1 mM EDTA, and 2 mM DTT. The reaction products were adjusted to 1 M NaCl or NOT and then analyzed by 10% SDS-PAGE and Coomassie Blue staining (lanes 4-7). FIG. 4 is a photograph of the stained gel.
This experiment was repeated after removal of the DMT from the AS oligonucleotides by acid treatment, and an identical gel-shift was observed on reaction of “DMT off” oligonucleotide complexes with Topo65. However, no gel shift was observed if duplex generated from ratios of single strand oligonucleotides alone, for example, TCRIBamS, TCRIBamAS, TCRIBstBS or TCRIBstBAS alone.

[2] = molecular target: T1, Topo65 (human topoisomerase I fragment, …); assay: covalent complex by SDS-PAGE shift; enzyme reacts quantitatively
Method: as §1
As a control, Topo65 was allowed to react with a duplex 22-mer suicide substrate. The suicide substrate contains a centrally positioned 5′-bridging phosphorothiolate.

Binder | binding result [1] | binding result [2]
B1 | no binding | –
B2 | – | binds
B3 | no binding | –
B4 | no binding | –
B5 | no binding | –
